{"source": "paper PMC2172279", "test_in_all_cases": "co-sedimentation", "key": {"[1]": {"biological_target": "dHMM heavy chain (dilute heavy meromyosin: six IQ motifs followed by a coiled-coil tail) (murine) (UniProt Q99104)"}, "[2]": {"biological_target": "dFull heavy chain (expressed full-length murine myosin V) (murine)"}, "[3]": {"biological_target": "MD2IQ heavy chain (murine myosin V motor domain and the first two IQ motifs) (murine) (UniProt Q99104)"}}, "data": [{"substance": "wild-type calmodulin (WT-CaM) (from UniProt P0DP33 1-149) (natural protein)", "values": [{"measurement": "mol CaM dissociated per mol HC in calcium (mol CaM per mol HC)", "setting": "[1]", "result": 1.5}, {"measurement": "mol CaM dissociated per mol HC in calcium (mol CaM per mol HC)", "setting": "[2]", "result": 1.7}, {"measurement": "mol CaM dissociated per mol HC in calcium (mol CaM per mol HC)", "setting": "[3]", "result": 0.5}]}]}
